B1: Bax ΔGD mutant (other, UniProt Q07812 1-192, looked up)
chain: MDGSGEQPRGGGPTSSEQIMKTGALLLQGFIQDRAGRMGGEAPELALDPVPQDASTKKMELQRMIAAVDTDSPREVFFRVAADMFSDGNFNWGRVVALFYFASKLVLKALCTKVPELIRTIMGWTLDFLRERLLGWIQDQGGWDGLLSYFGTPTWQTVTIFVAGVLTASLTIWKKMG
B2: Bip1a (other, UniProt Q13323 1-160, looked up)
chain: MSEVRPLSRDILMETLLYEQLLEPPTMEVLGMTDSEEDLDPMEDFDSLECMEGSDALALRLACIGDEMDVSLRAPRLAQLSEVAMHSLGLAFIYDQTEDIRDVLRSFMDGFTTLKENIMRFWRSPNPGSWVSCEQVLLALLLLLALLLPLLSGGLHLLLK
notes: Used in vitro translated and 35S labeled, and expressed in transfected COS cells; also called in vitro translated, 35S labeled Bip1a
B3: Bip1a ΔGD mutant (other, UniProt Q13323 1-160, looked up)
chain: MSEVRPLSRDILMETLLYEQLLEPPTMEVLGMTDSEEDLDPMEDFDSLECMEGSDALRAPRLAQLSEVAMHSLGLAFIYDQTEDIRDVLRSFMDGFTTLKENIMRFWRSPNPGSWVSCEQVLLALLLLLALLLPLLSGGLHLLLK
B4: Bak, in vitro translated, 35S-methionine labeled (other, UniProt Q16611 1-211, looked up)
chain: MASGQGPGPPRQECGEPALPSASEEQVAQDTEEVFRSYVFYRHQQEQEAEGVAAPADPEMVTLPLQPSSTMGQVGRQLAIIGDDINRRYDSEFQTMLQHLQPTAENAYEYFTKIATSLFESGINWGRVVALLGFGYRLALHVYQHGLTGFLGQVTRFVVDFMLHHCIARWIAQRGGWVAALNLGNGPILNVLVVLGVVLLGQFVVRRFFKS
modifications: 35S-methionine label
notes: also called 35S labeled in vitro translated Bak; 35Met-labeled Bak

Tests used:
Flag tag-Bcl-xL = target: T1, Flag tag-Bcl-xL (UniProt Q07817 1-233); assay: co-immunoprecipitation from transfected COS cells (summarised in FIG. 6)
T1 construct: Expressed in transfected COS cells; also called Flag-Bcl-xL

[1] = target: GST-PEM bacterially-expressed fusion protein (Bak residues 58-103 fused to GST) (UniProt P08515 1-218 = GST; Q16611 58-103); assay: GST pull-down of in vitro translated 35S labeled protein
[2] = target: GST alone (purified, bacterially expressed) (UniProt P08515 1-218 = GST); assay: GST pull-down on glutathione-agarose, autoradiography
GST alone (purified, bacterially expressed), sequence (P08515 whole entry): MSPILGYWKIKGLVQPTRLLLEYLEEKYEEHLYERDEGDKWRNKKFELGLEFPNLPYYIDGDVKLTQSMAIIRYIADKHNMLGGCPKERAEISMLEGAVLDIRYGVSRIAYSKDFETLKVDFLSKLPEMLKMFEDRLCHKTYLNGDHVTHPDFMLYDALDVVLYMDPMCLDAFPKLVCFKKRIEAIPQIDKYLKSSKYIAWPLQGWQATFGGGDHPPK

T1 sequence (Q07817 whole entry): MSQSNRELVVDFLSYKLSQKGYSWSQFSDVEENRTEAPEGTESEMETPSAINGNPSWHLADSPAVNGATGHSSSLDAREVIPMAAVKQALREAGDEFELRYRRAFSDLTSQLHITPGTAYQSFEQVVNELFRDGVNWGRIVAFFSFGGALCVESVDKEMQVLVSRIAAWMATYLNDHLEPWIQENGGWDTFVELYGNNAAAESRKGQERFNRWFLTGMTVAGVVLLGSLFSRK
GST-PEM bacterially-expressed fusion protein (Bak residues 58-103 fused to GST), sequence (P08515 1-218, tags or fused parts left off): as the sequence (P08515 whole entry) above

Binder	binding result (Flag tag-Bcl-xL)	further results
B1	no binding	–
B2	–	binding result [1]: no binding
B3	no binding	–
B4	–	binding result [2]: no binding
